The results in this text go back to article PMC11676761, “Mining and Characterization of Amylosucrase from Calidithermus terrae for Synthesis of α-Arbutin Using Sucrose” (International Journal of Molecular Sciences, 2024).

Substrate in this series: OC[C@H]1O[C@@](CO)(O[C@H]2O[C@H](CO)[C@@H](O)[C@H](O)[C@H]2O)[C@@H](O)[C@@H]1O
Briefly: DNS assay of released fructose, Lineweaver-Burk. Conditions: 42.0 °C. It is filed as biochemical, Calidithermus terrae.

One may read the Km as the concentration of substrate that gives half-maximal velocity. As a reminder, the kcat is the maximal rate divided by the concentration of active sites.

B1: (Calidithermus terrae) (protein)
chain: MFSTPLPAELRPLLERLLVQAESDLSGSDLETFSLRLERYLPDLHAGLAAVYPDVEGLLERLLPVLTAAHRARPAGLKRLDAHRLLAPDWFQRPEMIAYVAYTERFAGTLKGIEERLDYLEELGVRYLHLMPFLKPRPAPHDGGYAVMDYRAVREDLGSMDDLEALTAKLRARGIALCCDLVLNHVAQEHEWAVRARAGEARYQHYFHMFPDRTLPDEYEKTLPEVFPDFAPGNFTFDEASGKWVWTTFNRWQWDLNWANPAVFLEFADLILWLANRGVEVFRLDAIAFIWKRLGTNCQNQPEVHAITQALRAVARVVAPAVLFKAEAIVAPDDLIHYLGQGEHFGLVSDTAYHNSLMVQIWSSLASRDVRLMSEALRRFPVKPTNTAWNTYLRCHDDIGWAIADDDAARVGLSGEAHRRFLSDYYSGRFPTSPSRGLVFQENPRTGDRRISGSGASLAGLEQALEQNDPRQVHLSLERLLLGHAVVLGFGGIPLLYMGDELALLNDYSYLEEPEHAEDNRWVHRPHMDWDKAARAKADPASTEGRMYHGLLHLIRVRRATPHFHAAIEAQILEPRNPHVFGYVRRHPLGNLVALYNFSEEVQYYPAEVLWQQGLSLPHDRIGGQLVPIERHLVRLEPYARLWITDEV
Consider B1, for which the Michaelis constant (Km) was found to be 89.39 mM and the kcat was 86.3995 s⁻¹.
